Here are results for 1 substance from patent US20150337309A1.

Test [1] deals with integrin αvβ5 on breast cancer cells (MCF7, 4T1, MDA-MB-231). Put plainly: cell-based or functional assay.
The target in test [2] is integrin αvβ3 on breast cancer cells (MCF7, 4T1, MDA-MB-231). Put plainly: cell-based or functional assay.

With “periostin (recombinant protein purchased from R&D system, as coated on wells or added to cells) (ligand)”, the cell adhesion to periostin-coated wells after treatment with anti-αvβ5 antibody in test [1] is 50 % of control. Moreover, the cell adhesion to periostin-coated wells after treatment with anti-αvβ3 antibody in test [2] is 50 % of control.
